System: PspGI restriction endonuclease (recombinant, pPspGIR70) (Pyrococcus species G-I-H)
Assay: cleavage_in_vitro
Conditions: approximate titer of crude extract on T7 DNA; NEBuffer III, 65 C 1 h

For T7 DNA, the activity (units/g cells) was 20000.

Source: US5849558
